# Source: publication PMC12809495, “Potential 14-3-3 binding sites in sirtuins reveal extended phosphosite-recognition modes” (Acta Crystallographica Section F: Structural Biology …, 2026)
# Where “and” joins values, the source holds several entries; their conditions need not be identical. Identical values can stand only once. Where no end group is shown, it is not given here. [ ]: non-standard residue; d: D form. pS = N[C@@H](COP(=O)(O)O)C(=O)O
# T1: 14-3-3σ-ΔC (C-terminally truncated human 14-3-3σ) (human, UniProt P31947 1-231)
# T1 chain: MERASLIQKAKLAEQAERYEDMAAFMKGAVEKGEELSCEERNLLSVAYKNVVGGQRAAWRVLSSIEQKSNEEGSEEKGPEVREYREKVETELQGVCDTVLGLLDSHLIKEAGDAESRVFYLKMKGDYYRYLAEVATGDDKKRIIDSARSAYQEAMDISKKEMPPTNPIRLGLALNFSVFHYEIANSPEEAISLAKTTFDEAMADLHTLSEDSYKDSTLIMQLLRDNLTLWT
# T2: 14-3-3 epsilon (Homo sapiens)
# T2 chain: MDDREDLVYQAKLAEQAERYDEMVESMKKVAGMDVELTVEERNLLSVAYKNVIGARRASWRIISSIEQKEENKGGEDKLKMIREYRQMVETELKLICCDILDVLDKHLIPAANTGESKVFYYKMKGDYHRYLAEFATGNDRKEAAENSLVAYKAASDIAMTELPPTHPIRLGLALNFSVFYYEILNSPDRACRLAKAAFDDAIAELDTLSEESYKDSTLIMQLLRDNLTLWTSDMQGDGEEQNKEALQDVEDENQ
# T3: 14-3-3 theta (Homo sapiens)
# T3 chain: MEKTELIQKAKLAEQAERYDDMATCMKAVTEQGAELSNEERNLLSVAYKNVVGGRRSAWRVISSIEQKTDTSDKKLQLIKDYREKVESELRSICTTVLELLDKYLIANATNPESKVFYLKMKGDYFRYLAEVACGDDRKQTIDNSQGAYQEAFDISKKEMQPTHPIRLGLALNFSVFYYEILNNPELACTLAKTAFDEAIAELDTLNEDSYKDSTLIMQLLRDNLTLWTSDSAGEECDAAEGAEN
# B1: Sirt3^S103 nonphosphorylated peptide (peptide)
# chain: GRRSISFSVGA
# modifications: none (nonphosphorylated Ser103). Limits are not given; they are taken from the 11-residue peptide in PDB 8ANC entity 2 (GRRSISFSVGA, S103 at position 6), assuming the same endecamer …
# B2: 14-3-3σ-ΔC (C-terminally truncated human 14-3-3σ) (domain or fragment, UniProt P31947 1-231, looked up)
# chain: T1 chain
# notes: 14-3-3σ, human, C-terminally truncated gene fragment (ΔC) cloned into pPROEX-HTb; the structures show 'all 231 residues of the 14-3-3 monomer'; No removal of the His6 tag is described; The dimer in the crystals is formed with a symmetry mate; also called 14-3-3-ΔC; source: E. coli BL21 Rosetta (DE3), purified (nickel-nitrilotriacetic acid column)
# B3: Sirt3^pS103 phospho-endecamer peptide (peptide)
# chain: GRRSI[pS]FSVGA
# modifications: also: phosphoserine at 103 (place in chain not given here)
# B4: Sirt1^pS670 phospho-endecamer peptide (peptide)
# chain: VLSSS[pS]CGSNS
# modifications: also: phosphoserine at 670 (place in chain not given here)
# Tests used:
# [1] = target: B2; experiment: MST; label-free, intrinsic fluorescence of the 14-3-3 protein; 0.6 µM 14-3-3 protein titrated with peptide; 25 mM MES pH 6.5, 5 mM MgCl2, 5 mM CaCl2; 25°C; details: both partners purified
# [2] = target: the molecule itself; experiment: crystal structure; protein and peptide mixed 1:1.5; 0.1 M HEPES-NaOH pH 7.5, 0.2 M CaCl2, 24-28% PEG 400, 5% glycerol, 1 mM TCEP, 4°C
# [3] = target: T1, 14-3-3σ-ΔC (C-terminally truncated …); experiment: MST
# [4] = target: T2, 14-3-3 epsilon; experiment: MST
# [5] = target: T3, 14-3-3 theta; experiment: MST
# [6] = target: 14-3-3σ-ΔC (C-terminally truncated human 14-3-3σ) (human) (UniProt P31947); experiment: MST; label-free, intrinsic fluorescence of the 14-3-3 protein; 0.6 µM 14-3-3 protein titrated with peptide; 25 mM MES pH 6.5, 5 mM MgCl2, 5 mM CaCl2; 25°C
# [7] = target: 14-3-3σ-ΔC (C-terminally truncated human 14-3-3σ) (human) (UniProt P31947); experiment: ITC; 150 µM 14-3-3σ-ΔC in the cell, fourfold-concentrated phosphopeptide in the needle; 2 µl injections; 25°C; one-site fit; apparent
binder,measurement,setting,value
B1,Kd,[1],~881 µM
B2,binding result,[2],binds
B3,Kd,[3],10 µM
same,Kd,[4],> 267 µM
same,Kd,[5],52 µM
same,Kd,[6],1.5 µM and 2.1 µM
B4,Kd,[4],> 183 µM
same,Kd,[5],93 µM
same,Kd,[7],5 µM
